Data reported in US20150290235A1, “USE OF SMALL MOLECULE INHIBITORS/ACTIVATORS IN COMBINATION WITH (DEOXY)NUCLEOSIDE OR (DEOXY)NUCLEOTIDE ANALOGS FOR TREATMENT OF CANCER AND HEMATOLOGICAL MALIGNANCIES OR VIRAL INFECTIONS” (AB SCIENCE, priority 2012, published 2015).

Test system: Nc1ccn([C@@H]2O[C@H](CO)[C@@H](O)C2(F)F)c(=O)n1
Test: cells, lysate or membranes named
Details: other: ATP donor, 10 nM dCK, no masitinib

human deoxycytidine kinase (dCK) (Homo sapiens), sequence (chain, as listed by the source): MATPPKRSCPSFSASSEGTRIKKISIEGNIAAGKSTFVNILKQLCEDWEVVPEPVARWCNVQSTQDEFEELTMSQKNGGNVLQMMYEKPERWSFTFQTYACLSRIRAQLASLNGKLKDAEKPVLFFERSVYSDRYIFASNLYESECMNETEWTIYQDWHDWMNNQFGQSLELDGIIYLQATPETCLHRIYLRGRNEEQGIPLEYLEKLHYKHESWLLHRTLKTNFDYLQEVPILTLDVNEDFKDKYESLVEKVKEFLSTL

Question: For “human deoxycytidine kinase (dCK) (Homo sapiens)”, which Km is on record?
Answer: Its Km is 1 ± 0.3 µM.
